Measured values reported in US20250074949A1 (BRIGHAM AND WOMEN S HOSPITAL, published 2025).

Target: T1, mouse LY6A (mouse, UniProt P05533 27-112)
T1 construct: whole, on cells
T1 sequence: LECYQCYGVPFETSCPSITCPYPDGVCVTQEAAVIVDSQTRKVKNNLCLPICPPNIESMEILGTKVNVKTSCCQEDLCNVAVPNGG
Assay: AAV binding to LY6A-transfected HEK293T cells on ice, bound viral genomes counted by qPCR

B1: AAV.CPP.21 (other)
chain: MAADGYLPDWLEDNLSEGIREWWALKPGAPQPKANQQHQDNARGLVLPGYKYLGPGNGLDKGEPVNAADAAALEHDKAYDQQLKAGDNPYLKYNHADAEFQERLKEDTSFGGNLGRAVFQAKKRLLEPLGLVEEAAKTAPGKKRPVEQSPQEPDSSAGIGKSGAQPAKKRLNFGQTGDTESVPDPQPIGEPPAAPSGVGSLTMASGGGAPVADNNEGADGVGSSSGNWHCDSQWLGDRVITTSTRTWALPTYNNHLYKQISNSTSGGSSNDNAYFGYSTPWGYFDFNRFHCHFSPRDWQRLINNNWGFRPKRLNFKLFNIQVKEVTDNNGVKTIANNLTSTVQVFTDSDYQLPYVLGSAHEGCLPPFPADVFMIPQYGYLTLNDGSQAVGRSSFYCLEYFPSQMLRTGNNFQFSYEFENVPFHSSYAHSQSLDRLMNPLIDQYLYYLSKTINGSGQNQQTLKFSVAGPSNMAVQGRNYIPGPSYRQQRVSTTVTQNNNSEFAWPGASSWALNGRNSLMNPGPAMASHKEGEDRFFPLSGSLIFGKQGTGRDNVDADKVMITNEEEIKTTNPVATESYGQVATNHQSAQTVSALFKAQAQTGWVQNQGILPGMVWQDRDVYLQGPIWAKIPHTDGNFHPSPLMGGFGMKHPPPQILIKNTPVPADPPTAFNKDKLNSFITQYSTGQVSVEIEWELQKENSKRWNPEIQYTSNYYKSNNVEFAVNTEGVYSEPRPIGTRYLTRNL
notes: Whole recombinant AAV particle in the assay; also called Bip2.6 insert TVSALFK
  binding result: no binding (tested: MOI of 10000)

B2: AAV.CPP.16 (other)
chain: MAADGYLPDWLEDNLSEGIREWWALKPGAPQPKANQQHQDNARGLVLPGYKYLGPGNGLDKGEPVNAADAAALEHDKAYDQQLKAGDNPYLKYNHADAEFQERLKEDTSFGGNLGRAVFQAKKRLLEPLGLVEEAAKTAPGKKRPVEQSPQEPDSSAGIGKSGAQPAKKRLNFGQTGDTESVPDPQPIGEPPAAPSGVGSLTMASGGGAPVADNNEGADGVGSSSGNWHCDSQWLGDRVITTSTRTWALPTYNNHLYKQISNSTSGGSSNDNAYFGYSTPWGYFDFNRFHCHFSPRDWQRLINNNWGFRPKRLNFKLFNIQVKEVTDNNGVKTIANNLTSTVQVFTDSDYQLPYVLGSAHEGCLPPFPADVFMIPQYGYLTLNDGSQAVGRSSFYCLEYFPSQMLRTGNNFQFSYEFENVPFHSSYAHSQSLDRLMNPLIDQYLYYLSKTINGSGQNQQTLKFSVAGPSNMAVQGRNYIPGPSYRQQRVSTTVTQNNNSEFAWPGASSWALNGRNSLMNPGPAMASHKEGEDRFFPLSGSLIFGKQGTGRDNVDADKVMITNEEEIKTTNPVATESYGQVATNHQSAQTVSALKAQAQTGWVQNQGILPGMVWQDRDVYLQGPIWAKIPHTDGNFHPSPLMGGFGMKHPPPQILIKNTPVPADPPTAFNKDKLNSFITQYSTGQVSVEIEWELQKENSKRWNPEIQYTSNYYKSNNVEFAVNTEGVYSEPRPIGTRYLTRNL
notes: Whole recombinant AAV particle in the assay; also called Bip2.1 insert TVSALK
  binding result: no binding (tested: MOI of 10000)
